This passage reports substrate inhibition, units and Specific activity results from patent US6890910B1, “Murd protein and gene of Pseudomonas aeruginosa” (Merck & Co., Inc., priority 1998, dated 2005).

The target in data set [1] is recombinant MurD from E. coli (Escherichia coli, UniProt P14900). The following applies: 350 μM UDP-N-acetyl-muramyl-L-alanine.
Experimental: The ATP-dependent MurD activity was assayed by monitoring the formation of product ADP using the pyruvate kinase and lactate dehydrogenase coupled enzyme assay. The reaction was monitored spectrophotometrically.
Typically, the assay contained 100 mM BIS-TRIS-propane, pH 8.0, 200 μM NADH, 1 mM ATP, 20 mM PEP, 5 mM MgCl2, 1 mM DTT, 350 μM UDP-N-acetyl-muramyl-L-alanine, 1 mM D-glutamate, 33 units/ml of pyruvate kinase and 1660 units/ml of lactate dehydrogenase in a final volume of 200 or 400 μl. The mixture was incubated at 25° C. for 5 min and the reaction initiated by the addition of 1-10 μg of MurD.
Rates were calculated from the linear portions of the progress curves using the extinction coefficient for NADH, e=6220 cm^−1 M^−1. One unit of MurD activity is equal to 1 μmol of ADP formed per min at 25° C.
For data set [2], the target named is T1, recombinant MurD from P. aeruginosa (Pseudomonas aeruginosa, UniProt Q9HVZ9).
T1 construct: 6x His (pET-15b vector-encoded) (N); made in house; host or cells: E. coli BL21 (DE3)/pLysS
T1 sequence (Q9HVZ9 whole entry, looked up): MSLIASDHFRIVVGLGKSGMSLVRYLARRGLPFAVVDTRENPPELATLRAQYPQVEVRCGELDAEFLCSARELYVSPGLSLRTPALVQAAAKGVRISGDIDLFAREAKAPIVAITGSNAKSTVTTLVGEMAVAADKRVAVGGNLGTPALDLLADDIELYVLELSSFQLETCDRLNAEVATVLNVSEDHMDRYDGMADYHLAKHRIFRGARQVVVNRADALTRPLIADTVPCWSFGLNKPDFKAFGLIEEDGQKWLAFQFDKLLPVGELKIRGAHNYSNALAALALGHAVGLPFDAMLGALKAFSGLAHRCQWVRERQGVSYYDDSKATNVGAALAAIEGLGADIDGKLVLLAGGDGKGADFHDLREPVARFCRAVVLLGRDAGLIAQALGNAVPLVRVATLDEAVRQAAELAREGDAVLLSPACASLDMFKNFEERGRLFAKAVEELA
As to the kind of experiment: ATP-dependent MurD activity, pyruvate kinase/lactate dehydrogenase coupled enzyme assay. It is filed as biochemical. Particulars: UDP-N-acetylmuramyl-L-ala 350 μM, D-glutamate 1 mM, ATP 1 mM, 200 μl at 25° C. From the text:
The reaction was monitored spectrophotometrically.

recombinant MurD from E. coli, sequence (P14900 whole entry): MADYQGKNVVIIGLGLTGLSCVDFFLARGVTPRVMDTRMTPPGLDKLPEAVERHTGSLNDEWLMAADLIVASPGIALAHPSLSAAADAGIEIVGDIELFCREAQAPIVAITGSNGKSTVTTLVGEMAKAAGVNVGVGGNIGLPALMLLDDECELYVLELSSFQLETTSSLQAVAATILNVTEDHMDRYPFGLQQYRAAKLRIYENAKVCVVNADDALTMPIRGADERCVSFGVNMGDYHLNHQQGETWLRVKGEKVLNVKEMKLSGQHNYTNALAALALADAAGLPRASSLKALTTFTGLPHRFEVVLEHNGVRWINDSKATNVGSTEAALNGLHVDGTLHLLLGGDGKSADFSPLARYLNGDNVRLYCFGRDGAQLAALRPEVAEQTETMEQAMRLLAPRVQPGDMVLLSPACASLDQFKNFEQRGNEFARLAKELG

For `CC(=O)N[C@H]1C(OP(=O)(O)OP(=O)(O)OC[C@H]2O[C@@H](n3ccc(=O)[nH]c3=O)[C@H](O)[C@@H]2O)O[C@H](CO)[C@@H](O)[C@@H]1O[C@H](C)C(=O)N[C@H](C)C(=O)O` (stereo partly drawn) [UDP-N-acetyl-muramyl-L-alanine], the substrate inhibition result in data set [1] was “substrate inhibition of the E. coli MurD occurs”.

B1: P. aeruginosa MurD: Recombinant UDP-N-acetylmuramyl-L-alanine:D-glutamate ligase of Pseudomonas aeruginosa, over-produced as His-tagged fusion protein in E. coli (protein, listed as Pseudomonas aeruginosa)
chain: MSLIASDHFRIVVGLGKSGMSLVRYLARRGLPFAVVDTRENPPELATLRAQYPQVEVRCGELDAEFLCSARELYVSPGLSLRTPALVQAAAKGVRISGDIDLFAREAKAPIVAITGSNAKSTVTTLVGEMAVAADKRVAVGGNLGTPALDLLADDIELYVLELSSFQLETCDRLNAEVATVLNVSEDHMDRYDGMADYHLAKHRIFRGARQVVVNRADALTRPLIADTVPCWSFGLNKPDFKAFGLIEEDGQKWLAFQFDKLLPVGELKIRGAHNYSNALAALALGHAVGLPFDAMLGALKAFSGLAHRCQWVRERQGVSYYDDSKATNVGAALAAIEGLGADIDGKLVLLAGGDGKGADFHDLREPVARFCRAVVLLGRDAGLIAQALGNAVPLVRVATLDEAVRQAAELAREGDAVLLSPACASLDMFKNFEERGRLFAKAVEELA
modifications: His tag
notes: Recombinant UDP-N-acetylmuramyl-L-alanine:D-glutamate ligase of Pseudomonas aeruginosa, over-produced as His-tagged fusion protein in E. coli
Turning to B1, in data set [2] (0.0015 mg protein), the units worked out at 0.0047 µmol/min. Also, the Specific activity in data set [2] is given as 3.12 (μmol/min)/mg.
